According to patent US20220387487A1, “COMPOSITIONS AND METHODS FOR TREATMENT OF CANCER” (Aleta Biotherapeutics Inc., priority 2019, published 2022):
Where a chain is given by its changes, count along the chain named. Names may count otherwise.

B1: W62D/F64V/F66M: CD19 variant (protein)
chain: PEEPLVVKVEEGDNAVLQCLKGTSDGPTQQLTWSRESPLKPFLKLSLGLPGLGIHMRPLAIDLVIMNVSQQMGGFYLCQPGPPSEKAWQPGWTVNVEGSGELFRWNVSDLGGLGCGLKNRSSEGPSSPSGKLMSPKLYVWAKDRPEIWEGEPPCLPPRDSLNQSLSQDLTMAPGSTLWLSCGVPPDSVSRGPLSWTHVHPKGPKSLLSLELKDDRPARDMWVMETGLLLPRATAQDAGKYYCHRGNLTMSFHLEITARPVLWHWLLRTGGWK
B2: W62W/F64V/F66A: CD19 variant (protein)
chain: B1 chain with D62W, M66A
B3: W62T/F64V/F66F: CD19 variant (protein)
chain: B1 chain with D62T, M66F
B4: E224E/G226E/L228V: CD19 variant (protein)
chain: B1 chain with D62W, V64F, M66F, G226E, L228V
B5: W62R/F64A/F66F: CD19 variant (protein)
chain: B1 chain with D62R, V64A, M66F
B6: E224G/G226S/L228M: CD19 variant (protein)
chain: B1 chain with D62W, V64F, M66F, E224G, G226S, L228M
B7: E224D/G226V/L228V: CD19 variant (protein)
chain: B1 chain with D62W, V64F, M66F, E224D, G226V, L228V
B8: W62E/F64C/F66S: CD19 variant (protein)
chain: B1 chain with D62E, V64C, M66S
B9: W62E/F64R/F66R: CD19 variant (protein)
chain: B1 chain with D62E, V64R, M66R
B10: W62D/F64V/F66R: CD19 variant (protein)
chain: B1 chain with M66R
B11: E224G/G226A/L228T: CD19 variant (protein)
chain: B1 chain with D62W, V64F, M66F, E224G, G226A, L228T
B12: W62S/F64V/F66A: CD19 variant (protein)
chain: B1 chain with D62S, M66A
B13: E224G/G226V/L228V: CD19 variant (protein)
chain: B1 chain with D62W, V64F, M66F, E224G, G226V, L228V
B14: W62T/F64A/F66S: CD19 variant (protein)
chain: B1 chain with D62T, V64A, M66S
B15: W62H/F64F/F66R: CD19 variant (protein)
chain: B1 chain with D62H, V64F, M66R
B16: E224G/G226R/L228V: CD19 variant (protein)
chain: B1 chain with D62W, V64F, M66F, E224G, G226R, L228V
B17: W62T/F64V/F66R: CD19 variant (protein)
chain: B1 chain with D62T, M66R
B18: W62T/F64M/F66S: CD19 variant (protein)
chain: B1 chain with D62T, V64M, M66S
B19: E224G/G226S/L228V: CD19 variant (protein)
chain: B1 chain with D62W, V64F, M66F, E224G, G226S, L228V
B20: W62S/F64V/F66R: CD19 variant (protein)
chain: B1 chain with D62S, M66R
B21: W62H/F64V/F66S: CD19 variant (protein)
chain: B1 chain with D62H, M66S
B22: E224G/G226G/L228I: CD19 variant (protein)
chain: B1 chain with D62W, V64F, M66F, E224G, L228I
B23: L59N/I61I/L63I: CD19 variant (protein)
chain: B1 chain with L59N, D62W, L63I, V64F, M66F
B24: W62S/F64F/F66N: CD19 variant (protein)
chain: B1 chain with D62S, V64F, M66N
B25: W62N/F64L/F66P: CD19 variant (protein)
chain: B1 chain with D62N, V64L, M66P
B26: W62D/F64V/F66S: CD19 variant (protein)
chain: B1 chain with M66S
B27: E224G/G226A/L228V: CD19 variant (protein)
chain: B1 chain with D62W, V64F, M66F, E224G, G226A, L228V
B28: W62W/F64T/F66A: CD19 variant (protein)
chain: B1 chain with D62W, V64T, M66A
B29: W62D/F64A/F66S: CD19 variant (protein)
chain: B1 chain with V64A, M66S
B30: E224G/G226R/L228I: CD19 variant (protein)
chain: B1 chain with D62W, V64F, M66F, E224G, G226R, L228I
B31: W62G/F64V/F66K: CD19 variant (protein)
chain: B1 chain with D62G, M66K
B32: W62S/F64V/F66S: CD19 variant (protein)
chain: B1 chain with D62S, M66S
B33: W62G/F64V/F66R: CD19 variant (protein)
chain: B1 chain with D62G, M66R
B34: W62S/F64R/F66R: CD19 variant (protein)
chain: B1 chain with D62S, V64R, M66R
B35: #321: purified fusion protein of CD19 variant and anti-CLL-1 VHH; SEQ ID NO:303 (protein)
chain: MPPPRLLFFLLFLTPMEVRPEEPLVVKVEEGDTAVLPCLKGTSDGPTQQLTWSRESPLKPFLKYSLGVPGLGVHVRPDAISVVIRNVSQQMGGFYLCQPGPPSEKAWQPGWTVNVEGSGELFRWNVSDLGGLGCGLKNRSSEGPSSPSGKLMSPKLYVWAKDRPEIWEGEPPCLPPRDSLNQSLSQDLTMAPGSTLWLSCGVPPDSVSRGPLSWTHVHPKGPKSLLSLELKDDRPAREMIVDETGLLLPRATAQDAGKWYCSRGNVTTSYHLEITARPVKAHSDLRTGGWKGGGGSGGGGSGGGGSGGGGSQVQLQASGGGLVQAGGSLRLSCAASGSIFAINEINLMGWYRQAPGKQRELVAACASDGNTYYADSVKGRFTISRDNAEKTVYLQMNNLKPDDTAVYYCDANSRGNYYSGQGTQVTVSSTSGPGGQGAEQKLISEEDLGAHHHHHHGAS

tested on: FMC63; assay: CD19 variant binding to anti-CD19 antibody FMC63 (score); details: Table 1B, CD19 triple mutants
Sequence (as listed by the source): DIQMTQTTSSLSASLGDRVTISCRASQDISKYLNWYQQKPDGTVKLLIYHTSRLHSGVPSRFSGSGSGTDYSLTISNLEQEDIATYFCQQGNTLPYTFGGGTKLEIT
Sequence (as listed by the source): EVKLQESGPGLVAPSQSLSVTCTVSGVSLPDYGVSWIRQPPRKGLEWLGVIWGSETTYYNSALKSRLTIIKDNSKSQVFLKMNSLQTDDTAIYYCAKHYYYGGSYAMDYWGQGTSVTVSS

Molecule | FMC63 Binding Score
B1 | 16. ± 5.6
B2 | 13.7 ± 3.2
B3 | 13.6 ± 3.2
B4 | 11.6 ± 1.2
B5 | 15.9 ± 5.6
B6 | 13.8 ± 3.4
B7 | 13.8 ± 3.4
B8 | 12.6 ± 2.3
B9 | 12.4 ± 2.1
B10 | 12.6 ± 2.3
B11 | 12.7 ± 2.4
B12 | 13.5 ± 3.2
B13 | 11.2 ± 1.
B14 | 15.7 ± 5.6
B15 | 12.4 ± 2.3
B16 | 11. ± .9
B17 | 12.2 ± 2.1

Molecule | FMC63 Binding Score
B18 | 15.7 ± 5.6
B19 | 11.2 ± 1.1
B20 | 11.8 ± 1.7
B21 | 14. ± 4.
B22 | 11.2 ± 1.2
B23 | 15.6 ± 5.6
B24 | 15.6 ± 5.6
B25 | 15.6 ± 5.6
B26 | 13.3 ± 3.2
B27 | 10.8 ± .8
B28 | 13.9 ± 4.
B29 | 15.5 ± 5.6
B30 | 12. ± 2.
B31 | 12.3 ± 2.3
B32 | 15.4 ± 2.8
B33 | 14.1 ± 1.9
B34 | 13.7 ± 1.9

biological target: CLEC12A; assay: ELISA binding of fusion proteins (FMC63 coat, HRP-anti-His detection); set-up: species or system human; details: purified fusion protein, FMC63 coat; read-out: CLEC12A binding (ELISA EC50)
Sequence (as listed by the source): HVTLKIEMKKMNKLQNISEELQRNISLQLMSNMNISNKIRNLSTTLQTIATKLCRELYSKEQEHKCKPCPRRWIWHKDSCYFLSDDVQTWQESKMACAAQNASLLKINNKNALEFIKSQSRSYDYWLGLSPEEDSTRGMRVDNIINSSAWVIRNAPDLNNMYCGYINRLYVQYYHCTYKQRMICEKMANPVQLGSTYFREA
Experimental: The binding of the biparatopic fusion proteins to CLEC12A was also examined by ELISA. […] The plate was left to incubate overnight at 4° C. The coated plate was blocked with TBS/0.3% nonfat dry milk (NFD) for 60 minutes at RT.

Molecule | EC50 [nM]
B35 | 0.09
